Results taken from patent US8173131B2, “Compositions and methods for modulating RSV infection and immunity” (PerkinElmer Health Sciences, Inc., priority 2000, dated 2012).

T1: CX3CR1 (293-CX3CR1 cells) (Homo sapiens, UniProt P49238)
T1 construct: expressed in transfected cells
T1 sequence (P49238 1-355): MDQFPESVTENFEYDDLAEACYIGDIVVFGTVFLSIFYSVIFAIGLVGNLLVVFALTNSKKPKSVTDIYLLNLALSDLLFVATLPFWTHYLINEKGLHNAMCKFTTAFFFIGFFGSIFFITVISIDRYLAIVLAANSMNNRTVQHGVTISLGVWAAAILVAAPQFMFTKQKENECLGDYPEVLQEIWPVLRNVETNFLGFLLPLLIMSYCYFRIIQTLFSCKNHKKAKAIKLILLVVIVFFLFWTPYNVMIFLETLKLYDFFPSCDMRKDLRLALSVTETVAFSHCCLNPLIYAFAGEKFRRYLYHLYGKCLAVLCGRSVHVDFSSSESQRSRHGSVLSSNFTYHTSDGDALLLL


Tests used:
[1] = biological target: T1, CX3CR1 (293-CX3CR1 cells); test: G glycoprotein and Fkn binding to 293-CX3CR1 cells by flow cytometry; settings: for binding to 293-CX3CR1 cells: wheat germ lectin column fraction (G, F glycoprotein) or purified recombinant polyhistidine-tagged G glycoprotein
Experimental: (§1) Purified G glycoprotein was examined for binding to 293-CX3CR1 cells^33. A pcDNA 3.1 plasmid containing the CX3CR1 gene and a neomycin resistance gene was used to stably transfect human embryonic kidney (HEK) cells. Neomycin resistance was used for selection and maintenance of plasmid transfection of human embryonic kidney cells.
All binding studies were done on ice and either G glycoprotein or human Fkn (R&D Diagnostics, Minneapolis, […]) containing 1% bovine serum albumin (Sigma) and incubated with the 293-CX3CR1 cells or 293 control cells for 30 min at 4° C. […] For inhibition studies, 100 pM-1 μM human Fkn or G glycoprotein was preincubated with the cells for 30 min at 4° C. Without washing, 100 pM of either Fkn or G glycoprotein was added and incubated for 30 min at 4° C. The cells were washed, blocked with FcγRIII blocking antibody (HB197) for 30 min on ice, washed and stained as appropriate with either an anti-G glycoprotein monoclonal antibody cocktail (132-5B, 132-5G, 130-2G, 232-IF) or a biotinylated anti-G glycoprotein monoclonal antibody cocktail (130-2G, 131-2G) or anti-Fkn monoclonal antibody (51637.11; R&D Diagnostics). Concentrations of 1 μg of anti-G glycoprotein monoclonal antibody (131-2G)^34, rabbit anti-CX3CR1 sera^33, and anti-CX3CR1 monoclonal antibody containing 10 μg/ml heparin were used in all experiments. […] Staining was detected with absorbed FITC-goat anti-mouse (H & L chain) monoclonal antibody (PharMingen, San Diego, Calif.) or streptavidin-PE (PharMingen) using flow cytometry (FACScan, Becton-Dickinson, Mountain View, Calif.). A 76 amino acid ^125I-Fkn polypeptide comprising the […] (NEN, Boston, Mass.) was used in radioligand studies^33. As a control, the void volume following purified G glycoprotein passaged over an anti-G glycoprotein antibody (130-2G) affinity column was examined by flow cytometry for binding to either 293 or 293-CX3CR1 cells.
(§2) The receptor for Fkn, CX3CR1, was previously identified and characterized using anti-CX3CR1 rabbit antiserum and CX3CR1-transfected human embryonic kidney cells (293-CX3CR1 cells)^33.
The percent Fkn-maximum binding was calculated using the equation: [% G (or Fkn) 293-CX3CR1]-[% G (or Fkn) 293]/[% Fkn (10 nM) 293-CX3CR1]-[% Fkn (10 nM) 293], where G=G glycoprotein, Fkn=fractalkine, 293-CX3CR1=CX3CR1-transfected 293, 293=untransfected 293. The concentration of G glycoprotein was estimated using a molecular weight of 90 kD.

293 cells = test: G glycoprotein and Fkn binding to untransfected 293 control cells by flow cytometry; parameters: species or system human; settings: for binding to 293 cells: wheat germ lectin column fraction (G, F glycoprotein) or purified recombinant polyhistidine-tagged G glycoprotein
Experimental: as §1
All binding studies were done on ice and either G glycoprotein or human Fkn (R&D Diagnostics, Minneapolis, Minn.) were diluted between 1 nM-100 nM in PBS (GIBCO) containing 1% bovine serum albumin (Sigma) and incubated with the 293-CX3CR1 cells or 293 control cells for 30 min at 4° C. […] For inhibition studies, 100 pM-1 μM human Fkn or G glycoprotein was preincubated with the cells for 30 min at 4° C. Without washing, 100 pM of either Fkn or G glycoprotein was added and incubated for 30 min at 4° C. The cells were washed, blocked with FcγRIII blocking antibody (HB197) for 30 min on ice, washed and stained as appropriate with either an anti-G glycoprotein monoclonal antibody cocktail (132-5B, 132-5G, 130-2G, 232-IF) or a biotinylated anti-G glycoprotein monoclonal antibody cocktail (130-2G, 131-2G) or anti-Fkn monoclonal antibody (51637.11; R&D Diagnostics). Concentrations of 1 μg of anti-G glycoprotein monoclonal antibody (131-2G)^34, rabbit anti-CX3CR1 sera^33, and anti-CX3CR1 monoclonal antibody containing 10 μg/ml heparin were used in all experiments. […] Staining was detected with absorbed FITC-goat anti-mouse (H & L chain) monoclonal antibody (PharMingen, San Diego, Calif.) or streptavidin-PE (PharMingen) using flow cytometry (FACScan, Becton-Dickinson, Mountain View, Calif.). A 76 amino acid ^125I-Fkn polypeptide comprising the […] (NEN, Boston, Mass.) was used in radioligand studies^33. As a control, the void volume following purified G glycoprotein passaged over an anti-G glycoprotein antibody (130-2G) affinity column was examined by flow cytometry for binding to either 293 or 293-CX3CR1 cells.
as §2

RSV [2] = test: RSV plaque reduction assay on Vero cells (Example 1); type: cell-based, RSV/A2; settings: 5 μg/ml
Experimental: Dilutions of Fkn (R&D systems), SDF-1 α (R&D systems), G glycoprotein, heparin (Sigma), G glycoprotein peptides and anti-CX3CR1 antibody were made in serum-free Dulbecco's Modified Eagle's Media (DMEM; GIBCO) containing 1% BSA (Sigma) and preincubated with the Vero cells for 1 h at 37° C. 50 μg of anti-CX3CR1 antibody or heat-inactivated (56° C., 30 min) normal rabbit sera (control) were used in all experiments. […] Dilutions of RSV were made in serum-free DMEM (GIBCO) and added to pretreated Vero cells for 2 h at 37° C. Following virus infection, DMEM (GIBCO) containing 10% FBS (Hyclone, Logan, Utah) was added to the wells. Plaques were enumerated using immunostaining for F and G glycoproteins using biotinylated monoclonal antibodies 131-2A (anti-F glycoprotein) and 130-2G (anti-G glycoprotein) as described^45.
RSV plaque reduction following treatment with G glycoprotein, Fkn, G glycoprotein peptides, anti-CX3CR1 antibody, SDF-1-α and/or heparin as described in Methods. Percent inhibition was determined from the mean plaque forming units (pfu) of treated Vero cells over saline-treated Vero cells using a dilution of RSV that would produce 40-80 pfu. p-values were determined using unpaired two-tailed analysis where p<0.05 is significant. The concentration of G glycoprotein was estimated using a molecular weight of 90 kD.

[3] = biological target: T2, Fkn binding to 293-CX3CR1 cells (Homo sapiens, UniProt P49238); settings: heparin 5 μg/ml alone
T2 construct: host or cells: HEK 293 cells stably transfected with CX3CR1

RSV [4] = test: RSV plaque reduction by small molecule peptide inhibitors on Vero cells (Example II); type: cell-based, RSV/A2; settings: heparin alone, 5 μg/ml
Experimental: Vero cells were treated with PBS, RT33, RT34, Δ+1, Δ−1 and EYp1 peptides (100 μm) in the presence (B) or absence of heparin (A) (5 μg/ml). Percentage inhibition was determined by dividing the mean plaque forming units (PFU) of treated Vero cells by the mean PFU of PBS-treated Vero cells.
Different concentrations of the G glycoprotein peptides and/or 5 μg/ml heparin (Sigma) were diluted in Dulbecco's phosphate buffered saline (D-PBS; GIBCO) and added to Vero cell monolayers for 1 h at 37° C. Pre-treated Vero cells were infected with 10^6 PFU of RSV/A2 diluted in serum-free DMEM (GIBCO) for 2 h at 37° C., after which DMEM (GIBCO) containing 10% FBS (Hyclone, Logan, Utah) was added, and the infected cells incubated at 37° C. for 3-4 days. Plaques were enumerated by immunostaining with monoclonal antibodies against the G and F glycoproteins (130-2G and 131-2A, respectively), as described (54,55).

[5] = system: G glycoprotein binding to 293-CX3CR1 cells; parameters: species or system human; settings: heparin 5 μg/ml alone
Experimental: All binding studies were done on ice and either G glycoprotein or human Fkn (R&D Diagnostics, Minneapolis, Minn.) were diluted between 1 nM-100 nM in PBS (GIBCO) containing 1% bovine serum albumin (Sigma) and incubated with the 293-CX3CR1 cells or 293 control cells for 30 min at 4° C. […] Without washing, 100 pM of either Fkn or G glycoprotein was added and incubated for 30 min at 4° C. The cells were washed, blocked with FcγRIII blocking antibody (HB197) for 30 min on ice, washed and stained as appropriate with either an anti-G glycoprotein monoclonal antibody cocktail (132-5B, 132-5G, 130-2G, 232-IF) or a biotinylated anti-G glycoprotein monoclonal antibody cocktail (130-2G, 131-2G) or anti-Fkn monoclonal antibody (51637.11; R&D Diagnostics). Concentrations of 1 μg of anti-G glycoprotein monoclonal antibody (131-2G)^34, rabbit anti-CX3CR1 sera^33, and anti-CX3CR1 monoclonal antibody containing 10 μg/ml heparin were used in all experiments. […] Staining was detected with absorbed FITC-goat anti-mouse (H & L chain) monoclonal antibody (PharMingen, San Diego, Calif.) or streptavidin-PE (PharMingen) using flow cytometry (FACScan, Becton-Dickinson, Mountain View, Calif.). A 76 amino acid ^125I-Fkn polypeptide comprising the […] (NEN, Boston, Mass.) was used in radioligand studies^33. As a control, the void volume following purified G glycoprotein passaged over an anti-G glycoprotein antibody (130-2G) affinity column was examined by flow cytometry for binding to either 293 or 293-CX3CR1 cells.
For peptide inhibition studies, a series of G glycoprotein peptides were identified in the amino acid sequence of the A2 strain of RSV (GENBANK, attachment protein locus 1912305, Table 4). The peptides were synthesized using a simultaneous, multiple solid-phase peptide synthesis method on a peptide synthesizer (Perkin-Elmer Applied Biosystems, Berkeley, Calif.), and tested for homogeneity by reverse-phase liquid chromatography and capillary electrophoresis (www.biotech.cdc.gov/protein/methods). Inhibition assays were performed as described for the binding studies above.
To determine if G glycoprotein bound 293-CX3CR1 cells via CX3CR1, the ability of four reagents (anti-CX3CR1 rabbit antiserum, anti-CX3CR1 monoclonal antibody (2A9-1), Fkn and a 76 amino acid 125-I-Fkn polypeptide containing the CX3C domain) that bind to CX3CR1 to block G glycoprotein binding to 293-CX3CR1 cells was examined. In addition, to determine if binding of G glycoprotein to 293-CX3CR1 cells was dependent upon the CX3C motif, G glycoprotein peptides with a single residue insertion (Δ+1) or deletion (Δ−1) in the CX3C motif and also peptides that lacked or included the CX3C motif (Table 4) were generated. This panel of peptides was analyzed for their ability to block G glycoprotein or Fkn binding to 293-CX3CR1 cells.
Inhibition of Fkn and G glycoprotein binding to 293-CX3CR1 cells by treatment with monoclonal antibodies to G glycoprotein or CX3CR1, or treatment with G glycoprotein, Fkn, or G glycoprotein peptides in the presence or absence of heparin as described in Methods. […] The concentration of G glycoprotein was estimated using a molecular weight of 90 kD.

[6] = 10 nM ligand, representative experiment, FIG. 1

Molecule | binding to 293-CX3CR1 cells [1] | binding to 293 cells (293 cells) | plaque inhibition (%) (RSV [2]) | Range of Inhibition (%) of Fkn binding [3] | inhibition of plaque formation (RSV [4]) | Range of Inhibition (%) of G glycoprotein binding [5] | percent positive staining of CX3CR1-293 cells [1, 6] | percent positive staining of 293 cells (293 cells; [6])
F glycoprotein: RSV F (fusion) glycoprotein in wheat germ lectin column fraction | 12% | 8% | – | – | – | – | – | –
Heparin [reference compound] | – | – | 66% | 57-65% | 80% | 78-84% | – | –
GHIS: purified recombinant soluble polyhistidine-tagged G glycoprotein from transfected Vero cells (protein, left off: small tags and cut ends, purified recombinant soluble polyhistidine-tagged G glycoprotein from transfected Vero cells) NHKVTPTTAIIQDATSQIKNTTPTYLTQNPQLGISPSNPSEITSQITTILASTTPGVKSTLQSTTVKTKNTTTTQTQPSKPTTKQRQNKPPSKPNNDFHFEVFNFVPCSICSNNPTCWAICKRIPNKKPGKKTTTKPTKKPTLKTTKKDPKPQTTKSKEVPTTKPTEEPTINTTKTNIITTLLTSNTTGNPELTSQMETFHSTSSEGNPSPSQVSTTSEYPSQPSSPPNTPRQ | 68-88% | 7-12% | – | – | – | – | 68% | 12%
